Measurements: CN115819596A (YOUMAI BIOTECHNOLOGY LIANYUNGANG CO LTD, dated 2023)
Values belong to the binder of their own block, whether it stands above or below them.

Legend:
CD47 on A549 cells = target: T1, CD47 on A549 cells (human, UniProt Q08722 19-323); assay: grade of blocking of SIRPα-mouse Fc binding to CD47 on A549 cells, flow cytometry (reference antibody)
T1 construct: whole, on cells; A549 cells also express CEACAM5; also called A549细胞上CD47

[1] = target: 人CD47蛋白 (human CD47 protein) (human, UniProt Q08722 19-139, limits assumed); assay: SPR (Biacore 8K), antibody captured on protein A chip, human CD47 protein as analyte
[2] = target: T2, 人CEACAM5蛋白 (human CEACAM5 protein) (human, UniProt P06731 35-685, limits assumed); assay: SPR (Biacore 8K), antibody captured on protein A chip, human CEACAM5 protein as analyte
T2 construct: Soluble protein used for ELISA coating and as SPR analyte; The construct is not described
T2 sequence (looked up): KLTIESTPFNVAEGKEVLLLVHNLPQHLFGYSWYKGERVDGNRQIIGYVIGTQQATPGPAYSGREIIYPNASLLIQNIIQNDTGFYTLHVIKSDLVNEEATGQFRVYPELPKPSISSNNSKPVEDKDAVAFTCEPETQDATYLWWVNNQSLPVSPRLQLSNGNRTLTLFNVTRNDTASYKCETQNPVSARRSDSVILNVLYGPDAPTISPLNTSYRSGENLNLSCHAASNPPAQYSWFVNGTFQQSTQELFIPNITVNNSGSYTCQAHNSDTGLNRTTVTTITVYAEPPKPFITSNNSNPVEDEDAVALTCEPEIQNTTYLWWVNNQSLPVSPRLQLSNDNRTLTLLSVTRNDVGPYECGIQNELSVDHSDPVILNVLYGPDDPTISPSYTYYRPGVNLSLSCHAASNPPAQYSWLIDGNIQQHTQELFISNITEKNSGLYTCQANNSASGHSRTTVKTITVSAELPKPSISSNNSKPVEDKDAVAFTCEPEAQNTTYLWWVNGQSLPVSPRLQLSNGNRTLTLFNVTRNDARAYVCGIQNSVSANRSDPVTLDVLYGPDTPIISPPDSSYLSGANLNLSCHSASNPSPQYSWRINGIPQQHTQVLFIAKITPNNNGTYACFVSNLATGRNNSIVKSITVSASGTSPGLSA

[3] = target: T2, 人CEACAM5蛋白 (human CEACAM5 protein); assay: ELISA, plate-coated human CEACAM5 protein, goat anti-human IgG HRP
[4] = target: T3, 人CEACAM5 on CHO cells (CHO-CEACAM5) (human, UniProt P06731 35-685); assay: flow cytometry on CHO cells overexpressing human CEACAM5
T3 construct: whole, on cells; also called 过表达人CEACAM5的CHO细胞
T3 sequence (looked up): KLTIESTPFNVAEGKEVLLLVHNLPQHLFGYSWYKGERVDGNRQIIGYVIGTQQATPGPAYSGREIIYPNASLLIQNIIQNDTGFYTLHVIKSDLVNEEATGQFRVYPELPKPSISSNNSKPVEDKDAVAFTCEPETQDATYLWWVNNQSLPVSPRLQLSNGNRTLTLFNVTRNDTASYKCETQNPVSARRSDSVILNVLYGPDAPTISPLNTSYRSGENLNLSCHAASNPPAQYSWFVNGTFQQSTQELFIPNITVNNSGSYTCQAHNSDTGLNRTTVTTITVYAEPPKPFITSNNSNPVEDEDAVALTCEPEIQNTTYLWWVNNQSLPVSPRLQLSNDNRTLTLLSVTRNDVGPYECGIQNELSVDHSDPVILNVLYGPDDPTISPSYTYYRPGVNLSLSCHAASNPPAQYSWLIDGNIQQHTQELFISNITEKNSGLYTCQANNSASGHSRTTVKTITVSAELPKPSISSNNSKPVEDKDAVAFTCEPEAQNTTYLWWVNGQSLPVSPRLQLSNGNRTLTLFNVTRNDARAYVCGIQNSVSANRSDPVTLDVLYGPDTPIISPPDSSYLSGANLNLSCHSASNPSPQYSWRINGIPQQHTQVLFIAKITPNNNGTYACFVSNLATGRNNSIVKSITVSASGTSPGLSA

[5] = target: T4, 人CEACAM6 on CHO cells (CHO-CEACAM6) (human, UniProt P40199 35-320); assay: flow cytometry on CHO-CEACAM6 stable cells
T4 construct: whole, on cells
T4 sequence (looked up): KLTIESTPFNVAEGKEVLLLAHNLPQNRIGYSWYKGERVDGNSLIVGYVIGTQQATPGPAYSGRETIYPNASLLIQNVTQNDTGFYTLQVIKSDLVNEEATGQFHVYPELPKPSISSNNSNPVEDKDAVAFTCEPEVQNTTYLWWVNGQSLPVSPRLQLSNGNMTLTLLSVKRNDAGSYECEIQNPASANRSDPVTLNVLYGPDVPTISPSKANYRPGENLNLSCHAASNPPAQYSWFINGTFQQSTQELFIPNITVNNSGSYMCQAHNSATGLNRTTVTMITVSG

[6] = target: 食蟹猴CEACAM5蛋白 (cynomolgus CEACAM5 protein) (cynomolgus monkey); assay: ELISA, plate-coated cynomolgus CEACAM5 protein
[7] = target: T2, 人CEACAM5蛋白 (human CEACAM5 protein); assay: SPR (Biacore), antibody captured on protein A chip, CEACAM5 protein as analyte
[8] = target: T2, 人CEACAM5蛋白 (human CEACAM5 protein); assay: SPR (Biacore), antibody captured on protein A chip; the text value differs tenfold from Table 8

binding result (CD47 on A549 cells): binds
B1: UM03-C4 (antibody, V domains shown)
VH: QVQLVESGGGVVQPGGSLRLSCAASGFTFSDYGMAWIRQAPGKGPEWIAFITNLASSIYYADTVTGRFTISRDNSKNTLYLQMNSLRAEDTAVYYCARAGDYRSFPYWGQGTLVTVSA
VL: EIVLTQSPATLSLSPGERATLSCSASSSVNYVNWYQQKPGQAPRILIYGISNLASGVPARFSGSGSGTDFTLTISSLEPEDFAVYYCQQRSTFPPYTFGQGTKLEIK
notes: IgG4 subtype of the humanized anti-human CD47 antibody; also called 人源化CD47单克隆抗体; CD47抗体的IgG4亚型

Kd [1]: 65.7 nM
koff [1]: 0.0451 s⁻¹
kon [1]: 686000 M⁻¹ s⁻¹
Kd [2]: 7.43 nM
koff [2]: 0.000173 s⁻¹
kon [2]: 23300 M⁻¹ s⁻¹
B2: UM11-L34 (bispecific antibody)
chain 1: not shown
chain 2: DIQMTQSPSSLSASVGDRVTITCGASENIYGTLNWYQQKPGKSPKLLIYGATNLADAVPSRFSGSGSGTDYTLTISSLQPEDVATYYCQNVLSIPYTFGGGTKVEIKRTVAAPSVFIFPPSDEQLKSGTASVVCLLNNFYPREAKVQWKVDNALQSGNSQESVTEQDSKDSTYSLSSTLTLSKADYEKHKVYACEVTHQGLSSPVTKSFNRGEC

EC50 [3]: 0.399 nM
EC50 [4]: 0.637 µg/mL
B3: UM05-C9 (antibody, V domains shown)
VH: QVQLVQSGAEVKKPGASVKVSCKASGYTFTDYAMHWVRQAPGQGLEWIGVISTYSGHTNYNQKFKGRAIMTRDKSISTAYMELSRLRSDDTAVYYCVRGSTTAHYYTMDFWGQGTTVTVSS
VL: DIQMTQSPSSLSASVGDRVTITCGASENIYGTLNWYQQKPGKSPKLLIYGATNLADAVPSRFSGSGSGTDYTLTISSLQPEDVATYYCQNVLSIPYTFGGGTKVEIK
notes: Humanized anti-human CEACAM5/6 antibody; Only the variable domains are tied to it by name; Detected with goat anti-human IgG; also called 人源化抗体UM05-C9; CEACAM5/6抗体UM05-C9

binding result [5]: binds
EC50 [6]: 0.678 nM
Kd [7]: 6.8 nM
koff [7]: 0.000445 s⁻¹
kon [7]: 65400 M⁻¹ s⁻¹
Kd [8]: 0.68 nM
B4: UM05-L9 (antibody, human IgG1, kappa, V domains shown)
VH: QVQLQQSGPELVRPGVSVKISCKGSGYTFTDYAMHWVKQSHAKSLEWIGVISTYSGHTNYNQKFKGKAIMTVDKSSSTAYMDLARLTSEDSAIYYCVRGSTTAHYYTMDFWGQGTSVTVSS
VL: DIQMTQSPVSLSASVGETVTITCGASENIYGTLNWYQRKQGKSPQLLIYGATNLADGVSSRFSGSGSGRQYSLKISSLHPDDVATYYCQNVLSIPYTFGGGTKLEIKR
notes: also called 人-鼠嵌合抗体UM05-L9; 嵌合抗体UM05-L9
